Experimental data as given in patent US7163817 (COUNCIL OF SCIENTIFIC AND INDUSTRIAL RESEARCH A NEW DEHLI …, dated 2007).

T1: human fibrin (immobilised, fibrin-Sepharose) (human, UniProt P02671 36-629; P02675 45-491; P02679 27-437)
T1 construct: Fibrin coupled to Sepharose beads; Its preparation and chain limits are not described; also called human fibrin-Sepharose
T1 sequence 1: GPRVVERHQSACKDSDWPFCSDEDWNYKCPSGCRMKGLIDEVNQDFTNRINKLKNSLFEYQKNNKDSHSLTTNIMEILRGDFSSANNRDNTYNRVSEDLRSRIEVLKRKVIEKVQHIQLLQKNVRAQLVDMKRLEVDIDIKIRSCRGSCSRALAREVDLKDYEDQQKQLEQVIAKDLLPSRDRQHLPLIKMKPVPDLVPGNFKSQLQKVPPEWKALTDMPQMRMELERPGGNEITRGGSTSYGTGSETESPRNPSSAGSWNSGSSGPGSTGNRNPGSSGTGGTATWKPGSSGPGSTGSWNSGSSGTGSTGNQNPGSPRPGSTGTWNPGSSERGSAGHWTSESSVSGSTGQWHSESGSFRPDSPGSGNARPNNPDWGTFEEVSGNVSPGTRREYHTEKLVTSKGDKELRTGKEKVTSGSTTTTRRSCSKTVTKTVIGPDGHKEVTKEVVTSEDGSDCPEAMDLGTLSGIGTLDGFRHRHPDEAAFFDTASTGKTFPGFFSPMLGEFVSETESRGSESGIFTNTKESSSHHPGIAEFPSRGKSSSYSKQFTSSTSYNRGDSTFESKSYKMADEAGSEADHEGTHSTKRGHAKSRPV
T1 sequence 2: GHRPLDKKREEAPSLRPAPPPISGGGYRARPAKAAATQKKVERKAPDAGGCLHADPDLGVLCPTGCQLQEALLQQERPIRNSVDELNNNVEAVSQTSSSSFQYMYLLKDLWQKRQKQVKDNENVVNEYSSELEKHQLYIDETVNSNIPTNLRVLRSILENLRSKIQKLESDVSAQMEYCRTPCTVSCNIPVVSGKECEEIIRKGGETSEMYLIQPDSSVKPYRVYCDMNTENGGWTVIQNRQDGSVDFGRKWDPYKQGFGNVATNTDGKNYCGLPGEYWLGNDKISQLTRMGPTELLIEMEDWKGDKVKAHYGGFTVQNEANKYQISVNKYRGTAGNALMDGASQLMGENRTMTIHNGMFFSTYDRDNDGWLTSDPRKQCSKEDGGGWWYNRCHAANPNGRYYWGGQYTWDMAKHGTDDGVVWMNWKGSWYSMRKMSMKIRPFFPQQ
T1 sequence 3: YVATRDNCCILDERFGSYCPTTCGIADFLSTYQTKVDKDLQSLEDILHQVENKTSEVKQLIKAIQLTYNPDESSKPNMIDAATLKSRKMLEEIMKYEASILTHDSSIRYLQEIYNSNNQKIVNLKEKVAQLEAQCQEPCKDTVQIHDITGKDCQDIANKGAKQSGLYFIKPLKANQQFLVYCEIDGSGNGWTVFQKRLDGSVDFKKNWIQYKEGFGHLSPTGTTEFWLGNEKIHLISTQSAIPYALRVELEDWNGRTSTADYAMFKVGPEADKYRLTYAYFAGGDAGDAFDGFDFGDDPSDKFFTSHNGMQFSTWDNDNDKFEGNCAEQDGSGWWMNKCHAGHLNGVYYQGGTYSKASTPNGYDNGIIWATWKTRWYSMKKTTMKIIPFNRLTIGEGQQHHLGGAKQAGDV


How the values were obtained:
[1] = biological target: T1, human fibrin (immobilised, …); assay: refolding with fibrin-Sepharose beads; washes with binding buffer and 2 M urea, elution with 6 M urea
[2] = biological target: T1, human fibrin (immobilised, …); assay: fibrin-Sepharose affinity chromatography; washes with binding buffer and 2 M urea, elution with 6 M urea

| Binder | fibrin-bound protein eluted with 6 M urea [1] | binding result [2] |
| --- | --- | --- |
| SK-FBD(1,2) chimeric protein (other, Start residue 1 is inferred from primer MY-10, which hybridises at the natural TG site QAQQMV) MIAGPEWLLDRPSVNNSQLVVSVAGTVEGTNQDISLKFFEIDLTSRPAHGGKTEQGLSPKSKPFATDSGAMSHKLEKADLLKAIQEQLIANVHSNDDYFEVIDFASDATITDRNGKVYFADKDGSVTLPTQPVQEFLLSGHVRVRPYKEKPIQNQAKSVDVEYTVQFTPLNPDDDFRPGLKDTKLLKTLAIGDTITSQELLAQAQSILNKNHPGYTIYERDSSIVTHDNDIFRTILPMDQEFTYRVKNREQAYRINKKSGLNEEINNTDLISEKYYVLKKGEKPYDPFDRSHLKLFTIKYVDVDTNELLKSEQLLTASERNLDFRDLYDPRDKAKLLYNNLDAFGIMDYTLTGKVEDNHDDTNRIITVYMGKRPEGENASYHLAGGGQAQQMVQPQSPVAVSQSKPGCYDNGKHYQINQQWERTYLGNVLVCTCYGGSRGFNCESKPEAEETCFDKYTGNTYRVGDTYERPKDSMIWDCTCIGAGRGRISC | ~4 mg | – |
| SK control (streptokinase, fibrin-Sepharose experiment) (other) IAGPEWLLDRPSVNNSQLVVSVAGTVEGTNQDISLKFFEIDLTSRPAHGGKTEQGLSPKSKPFATDSGAMSHKLEKADLLKAIQEQLIANVHSNDDYFEVIDFASDATITDRNGKVYFADKDGSVTLPTQPVQEFLLSGHVRVRPYKEKPIQNQAKSVDVEYTVQFTPLNPDDDFRPGLKDTKLLKTLAIGDTITSQELLAQAQSILNKNHPGYTIYERDSSIVTHDNDIFRTILPMDQEFTYRVKNREQAYRINKKSGLNEEINNTDLISEKYYVLKKGEKPYDPFDRSHLKLFTIKYVDVDTNELLKSEQLLTASERNLDFRDLYDPRDKAKLLYNNLDAFGIMDYTLTGKVEDNHDDTNRIITVYMGKRPEGENASYHLAYDKDRYTEEEREVYSYLRYTGTPIPDNPNDK | – | no binding |
